The record followed here is PMC3120740, “WRKY Transcription Factors Involved in Activation of SA Biosynthesis Genes”.

B1: m2.7 (dsDNA)
DNA 1: ATTTCCCGGTATTTCACCTTGTCAAGATAT
DNA 2: ATATCTTGACAAGGTGAAATACCGGGAAAT
B2: m2 (dsDNA)
DNA 1: ATTTCTGACTATTTCAATTTCCGGAGATAT
DNA 2: ATATCTCCGGAAATTGAAATAGTCAGAAAT
B3: m2.2 (dsDNA)
DNA 1: ATTTCCCGGTATTTCAATTTCCCAAGATAT
DNA 2: ATATCTTGGGAAATTGAAATACCGGGAAAT
B4: m2.3 (dsDNA)
DNA 1: ATTTCCCGGTATTTCAATTTGTGGAGATAT
DNA 2: ATATCTCCACAAATTGAAATACCGGGAAAT
B5: m1 (dsDNA)
DNA 1: B3 DNA 1 with C21G, C22T
DNA 2: B4 DNA 2 with C7T, C8G
B6: m2.1 (dsDNA)
DNA 1: ATTTCCCGGTATTTCAATGGGTCAAGATAT
DNA 2: ATATCTTGACCCATTGAAATACCGGGAAAT
B7: m2.4 (dsDNA)
DNA 1: ATTTCCCGGTATTTCAATTTGTCACCATAT
DNA 2: ATATGGTGACAAATTGAAATACCGGGAAAT
B8: ICS1 -725 (dsDNA)
DNA 1: ATTTTAGAAATGTGTCAAAATTTAAAGGAG
DNA 2: CTCCTTTAAATTTTGACACATTTCTAAAAT
B9: ICS1 -648 (dsDNA)
DNA 1: TTGCAATTTGTAGTGACATGTAATGTTTTT
DNA 2: AAAAACATTACATGTCACTACAAATTGCAA
B10: ICS1 -844 WK-like box (dsDNA)
DNA 1: AATAGTATTGATTTTCCAAATTTAATTATA
DNA 2: TATAATTAAATTTGGAAAATCAATACTATT
B11: ICS1 -278 (dsDNA)
DNA 1: CTAATAATAATAGATCAAACAATTAACTGA
DNA 2: TCAGTTAATTGTTTGATCTATTATTATTAG
B12: m1+2 (dsDNA)
DNA 1: B3 DNA 1 with C23G, A24G
DNA 2: B4 DNA 2 with A9G, C10G
B13: m2.8 (dsDNA)
DNA 1: ATTTCCCGGTATTTCAATTTGTCAAGGGAT
DNA 2: ATCCCTTGACAAATTGAAATACCGGGAAAT
B14: m2.5 (dsDNA)
DNA 1: B7 DNA 1 with C25G, C26A
DNA 2: B7 DNA 2 with G5T, G6C

Changes are numbered by the printed parent chain.

The target in the first data set is T1, GST-WRKY28 (Arabidopsis thaliana, UniProt Q8VWJ2 1-318). The data set is described as follows: EMSA; 0.5 ug protein, ~0.01 pmol probe; 3 uL 5x buffer (20% glycerol, 5 mM MgCl2, 2.5 mM EDTA, 2.5 mM DTT, 250 mM NaCl, 50 mM Tris-HCl pH 7.5, 0.25 mg/mL poly(dI-dC)) in 14 uL + 1 uL probe (final about 50 mM NaCl, 10 mM Tris, 1 mM MgCl2); room temperature, 20 min. As to conditions: protein: recombinant; tags: N-terminal GST (pGEX-KG); label: 32P-dCTP end-fill (Klenow); 5'-GGG overhangs filled in with Klenow. Background: In EMSA bound probe runs differently from free probe, usually more slowly.
T1 sequence (Q8VWJ2 whole entry): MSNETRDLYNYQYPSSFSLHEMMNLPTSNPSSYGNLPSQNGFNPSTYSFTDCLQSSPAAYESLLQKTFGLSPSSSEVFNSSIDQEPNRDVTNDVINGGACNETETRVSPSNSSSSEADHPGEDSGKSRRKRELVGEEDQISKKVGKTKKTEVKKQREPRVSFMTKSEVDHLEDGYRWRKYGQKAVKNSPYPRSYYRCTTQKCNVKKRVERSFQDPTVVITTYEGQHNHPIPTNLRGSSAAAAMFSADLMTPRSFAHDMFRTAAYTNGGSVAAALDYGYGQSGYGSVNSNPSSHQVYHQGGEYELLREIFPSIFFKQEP
As for B1, the binding result was “no binding”.
The same measure, in the same setting: under B2 stands “binds”.
Turning to B3, the binding result is listed as “no binding”.
In the case of B4, the binding result was “no binding”.
With B5, the binding result is listed as “binds”.
Same read-out and setting: as for B6, the entry is “binds”.
For the molecule B7, the binding result was “binds”.
On the same count and under the same terms, as for B8, the entry is “no binding”; as for B9, “no binding”; as for B10, “no binding”.
Regarding B11, the binding result was “no binding”.
Still for that read-out and setting: as for B12, the entry is “no binding”.

The target in another data set is T1, GST-WRKY28. Description: EMSA; unaltered binding; 0.5 ug protein, ~0.01 pmol probe; 3 uL 5x buffer (20% glycerol, 5 mM MgCl2, 2.5 mM EDTA, 2.5 mM DTT, 250 mM NaCl, 50 mM Tris-HCl pH 7.5, 0.25 mg/mL poly(dI-dC)) in 14 uL + 1 uL probe (final about 50 mM NaCl, 10 mM Tris, 1 mM MgCl2); room temperature, 20 min. As to conditions: protein: recombinant; tags: N-terminal GST (pGEX-KG); label: 32P-dCTP end-fill (Klenow); 5'-GGG overhangs filled in with Klenow.
As for B13, the binding result is given as “binds”.

Another data set concerns the target T1, GST-WRKY28. The data set is described as follows: EMSA; as strong as wild type; 0.5 ug protein, ~0.01 pmol probe; 3 uL 5x buffer (20% glycerol, 5 mM MgCl2, 2.5 mM EDTA, 2.5 mM DTT, 250 mM NaCl, 50 mM Tris-HCl pH 7.5, 0.25 mg/mL poly(dI-dC)) in 14 uL + 1 uL probe (final about 50 mM NaCl, 10 mM Tris, 1 mM MgCl2); room temperature, 20 min. The conditions noted are these: protein: recombinant; tags: N-terminal GST (pGEX-KG); label: 32P-dCTP end-fill (Klenow); 5'-GGG overhangs filled in with Klenow.
Turning to B14, the binding result is on record as “binds”.
